Laboratory results taken from IntAct's records for PubMed 19494828.

B1: Caspase-9 (Homo sapiens), P55211 (parent)
chain: MDEADRRLLRRCRLRLVEELQVDQLWDALLSRELFRPHMIEDIQRAGSGSRRDQARQLIIDLETRGSQALPLFISCLEDTGQDMLASFLRTNRQAAKLSKPTLENLTPVVLRPEIRKPEVLRPETPRPVDIGSGGFGDVGALESLRGNADLAYILSMEPCGHCLIINNVNFCRESGLRTRTGSNIDCEKLRRRFSSLHFMVEVKGDLTAKKMVLALLELAQQDHGALDCCVVVILSHGCQASHLQFPGAVYGTDGCPVSVEKIVNIFNGTSCPSLGGKPKLFFIQACGGEQKDHGFEVASTSPEDESPGSNPEPDATPFQEGLRTFDQLDAISSLPTPSDIFVSYSTFPGFVSWRDPKSGSWYVETLDDIFEQWAHSEDLQSLLLRVANAVSVKGIYKQMPGCFNFLRKKLFFKTS

Variants of: B1
Conditions: with apaf_human APAF1, O14727
Chain of apaf_human APAF1, O14727 (O14727 whole entry): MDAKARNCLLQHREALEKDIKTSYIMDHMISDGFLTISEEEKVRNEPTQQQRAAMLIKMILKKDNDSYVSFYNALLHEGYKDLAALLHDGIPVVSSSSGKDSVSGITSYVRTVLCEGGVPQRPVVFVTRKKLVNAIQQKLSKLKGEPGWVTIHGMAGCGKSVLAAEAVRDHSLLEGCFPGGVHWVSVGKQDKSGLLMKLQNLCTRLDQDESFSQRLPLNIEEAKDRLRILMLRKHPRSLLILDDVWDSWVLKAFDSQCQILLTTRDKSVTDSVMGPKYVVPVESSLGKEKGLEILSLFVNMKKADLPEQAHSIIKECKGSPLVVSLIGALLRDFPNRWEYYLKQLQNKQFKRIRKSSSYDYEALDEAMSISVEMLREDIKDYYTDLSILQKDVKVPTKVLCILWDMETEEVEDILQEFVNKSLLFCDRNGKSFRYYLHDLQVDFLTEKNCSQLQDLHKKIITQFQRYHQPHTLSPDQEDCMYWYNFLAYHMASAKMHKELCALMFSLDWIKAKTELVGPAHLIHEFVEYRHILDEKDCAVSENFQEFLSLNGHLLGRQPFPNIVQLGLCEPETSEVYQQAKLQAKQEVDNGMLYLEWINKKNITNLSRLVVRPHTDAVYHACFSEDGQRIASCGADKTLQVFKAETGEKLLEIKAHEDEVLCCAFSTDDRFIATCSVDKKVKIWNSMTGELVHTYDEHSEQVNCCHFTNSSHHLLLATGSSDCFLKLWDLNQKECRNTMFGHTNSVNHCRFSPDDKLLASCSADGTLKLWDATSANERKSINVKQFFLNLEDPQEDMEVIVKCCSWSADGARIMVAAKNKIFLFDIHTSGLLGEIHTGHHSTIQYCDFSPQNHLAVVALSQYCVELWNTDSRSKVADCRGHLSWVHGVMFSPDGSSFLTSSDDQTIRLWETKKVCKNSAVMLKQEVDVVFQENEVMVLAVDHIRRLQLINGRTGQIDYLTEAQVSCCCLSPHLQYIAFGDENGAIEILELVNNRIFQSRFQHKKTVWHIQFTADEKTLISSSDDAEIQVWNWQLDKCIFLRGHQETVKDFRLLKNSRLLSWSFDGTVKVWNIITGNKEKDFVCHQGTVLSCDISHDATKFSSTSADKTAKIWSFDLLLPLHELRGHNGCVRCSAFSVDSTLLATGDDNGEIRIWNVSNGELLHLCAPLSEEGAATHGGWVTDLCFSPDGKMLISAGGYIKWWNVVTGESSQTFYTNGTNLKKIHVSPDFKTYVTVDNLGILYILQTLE

| effect of a mutation on the interaction | Variant |
| --- | --- |
| disrupting interaction | MDEADRRLLRRCRLRLVEELQVDQLWDALLSRELFRPHMIEDIQRAGSGSRRDQAAQLIIDLETRGSQALPLFISCLEDTGQDMLASFLRTNRQAAKLSKPTLENLTPVVLRPEIRKPEVLRPETPRPVDIGSGGFGDVGALESLRGNADLAYILSMEPCGHCLIINNVNFCRESGLRTRTGSNIDCEKLRRRFSSLHFMVEVKGDLTAKKMVLALLELAQQDHGALDCCVVVILSHGCQASHLQFPGAVYGTDGCPVSVEKIVNIFNGTSCPSLGGKPKLFFIQACGGEQKDHGFEVASTSPEDESPGSNPEPDATPFQEGLRTFDQLDAISSLPTPSDIFVSYSTFPGFVSWRDPKSGSWYVETLDDIFEQWAHSEDLQSLLLRVANAVSVKGIYKQMPGCFNFLRKKLFFKTS [R56A] |
